# Source: article PMC3068226 (Biochemistry, 2011)
# Tests used:
# [1] = target: T1, BSA (Bos taurus, UniProt P02769); assay: Binding to BSA by fluorescence quenching of albumin tryptophan; settings: double logarithmic plot (Eq. 6), less than 1 mol/mol dye to albumin
# [2] = target: T1, BSA
# [3] = type: in vivo, mouse; settings: for change in kurtosis over time after injection: mouse ear, LS224 over 6 h, LS296 within 3 h
# T1 sequence (P02769 25-607): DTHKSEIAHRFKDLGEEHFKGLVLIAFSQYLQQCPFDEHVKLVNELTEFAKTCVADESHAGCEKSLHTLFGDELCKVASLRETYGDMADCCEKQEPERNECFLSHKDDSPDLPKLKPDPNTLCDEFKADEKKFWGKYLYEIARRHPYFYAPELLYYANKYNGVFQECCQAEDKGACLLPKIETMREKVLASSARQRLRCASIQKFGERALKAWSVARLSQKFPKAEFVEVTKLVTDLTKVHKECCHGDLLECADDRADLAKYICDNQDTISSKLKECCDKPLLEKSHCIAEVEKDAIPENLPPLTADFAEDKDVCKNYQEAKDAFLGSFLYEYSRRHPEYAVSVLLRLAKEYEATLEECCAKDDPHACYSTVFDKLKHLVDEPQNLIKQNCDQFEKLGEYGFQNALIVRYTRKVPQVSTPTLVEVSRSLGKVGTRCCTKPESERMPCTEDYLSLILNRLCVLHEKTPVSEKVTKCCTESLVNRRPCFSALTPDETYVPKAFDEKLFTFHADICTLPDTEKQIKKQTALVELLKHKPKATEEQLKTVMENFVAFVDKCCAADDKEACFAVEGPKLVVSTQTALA
Molecule,"K, M^−1 (binding constants to BSA in PBS buffer) [2]",change in kurtosis over time after injection ([3]; ex/em 780/800 nm),further results
"CC1(C)C(/C=C/C=C/C=C/C=C2\N(CCCCS(=O)(=O)O)c3ccc4ccccc4c3C2(C)C)=[N+](CCCCS(=O)(=O)[O-])c2ccc3ccccc3c21 [ICG, indocyanine green]",,,number of binding sites n on albumin [1]: 1.012 ± 0.0212
"CC1(C)C(=CC=C2CCCC(C=CC3=[N+](CCCCCC(=O)[O-])c4ccc(S(=O)(=O)[O-])cc4C3(C)C)=C2Oc2ccc(S(=O)(=O)[O-])cc2)N(CCCCS(=O)(=O)[O-])c2ccc(S(=O)(=O)[O-])cc21.[Na+].[Na+].[Na+].[Na+] [IRdye800CW, reference compound]",,,"binding constant K to BSA [2]: ~6,100 M^−1; initial kurtosis value at the first time point ([3]; mouse ear ROI, 2 min after injection): less than 1; time of peak fluorescence intensity in ROI after injection ([3]; mouse ear ROI, intravenous injection, ex/em 780/800 nm): 20 to 30 min"
Cypate-DPhe-Cyclo(Cys-Tyr-DTrp-Lys-Thr-Cys)-Thr-OH (disulfide) [LS224],"51,000 M^−1",no changes in kurtosis,
Cypate-Gly-Arg-Asp-Ser-Pro-Lys-OH [LS39],"76,000 M^−1",,
LS276-DPhe-Cyclo(Cys-Tyr-DTrp-Lys-Thr- Cys)-Thr-OH (disulfide) [LS296],"14,880 M^−1",dramatic changes,
